Laboratory results published in patent US20140193915, “COMPOSITIONS AND METHODS FOR CUSTOM SITE-SPECIFIC DNA RECOMBINASES” (Monsanto Technology, LLC, published 2014).

T1: pN-TALER IV-1-EE2 (GinL7C7-EE2-TALE13) (synthetic)
T1 chain: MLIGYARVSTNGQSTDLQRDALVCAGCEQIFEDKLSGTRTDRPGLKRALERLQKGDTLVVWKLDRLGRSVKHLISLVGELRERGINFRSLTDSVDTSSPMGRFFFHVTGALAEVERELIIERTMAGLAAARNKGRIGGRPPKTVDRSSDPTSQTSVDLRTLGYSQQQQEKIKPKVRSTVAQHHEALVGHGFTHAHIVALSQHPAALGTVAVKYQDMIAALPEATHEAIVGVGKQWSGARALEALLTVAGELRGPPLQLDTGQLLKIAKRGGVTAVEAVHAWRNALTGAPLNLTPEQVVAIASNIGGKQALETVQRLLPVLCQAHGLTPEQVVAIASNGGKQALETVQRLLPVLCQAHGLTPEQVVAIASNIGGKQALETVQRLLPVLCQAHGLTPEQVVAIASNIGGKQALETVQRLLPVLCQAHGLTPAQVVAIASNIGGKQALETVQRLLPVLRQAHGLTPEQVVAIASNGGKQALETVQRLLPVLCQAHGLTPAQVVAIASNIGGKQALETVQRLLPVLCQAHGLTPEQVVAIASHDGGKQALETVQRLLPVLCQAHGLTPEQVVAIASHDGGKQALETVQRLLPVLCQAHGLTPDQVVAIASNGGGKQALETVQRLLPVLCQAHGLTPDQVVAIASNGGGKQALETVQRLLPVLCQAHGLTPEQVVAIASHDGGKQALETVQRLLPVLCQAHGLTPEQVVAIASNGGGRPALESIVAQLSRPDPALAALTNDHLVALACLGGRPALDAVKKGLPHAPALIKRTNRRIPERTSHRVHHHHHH

T2: sN-TALER IV-1 (GinH106Y-TALE13) (synthetic)
T2 chain: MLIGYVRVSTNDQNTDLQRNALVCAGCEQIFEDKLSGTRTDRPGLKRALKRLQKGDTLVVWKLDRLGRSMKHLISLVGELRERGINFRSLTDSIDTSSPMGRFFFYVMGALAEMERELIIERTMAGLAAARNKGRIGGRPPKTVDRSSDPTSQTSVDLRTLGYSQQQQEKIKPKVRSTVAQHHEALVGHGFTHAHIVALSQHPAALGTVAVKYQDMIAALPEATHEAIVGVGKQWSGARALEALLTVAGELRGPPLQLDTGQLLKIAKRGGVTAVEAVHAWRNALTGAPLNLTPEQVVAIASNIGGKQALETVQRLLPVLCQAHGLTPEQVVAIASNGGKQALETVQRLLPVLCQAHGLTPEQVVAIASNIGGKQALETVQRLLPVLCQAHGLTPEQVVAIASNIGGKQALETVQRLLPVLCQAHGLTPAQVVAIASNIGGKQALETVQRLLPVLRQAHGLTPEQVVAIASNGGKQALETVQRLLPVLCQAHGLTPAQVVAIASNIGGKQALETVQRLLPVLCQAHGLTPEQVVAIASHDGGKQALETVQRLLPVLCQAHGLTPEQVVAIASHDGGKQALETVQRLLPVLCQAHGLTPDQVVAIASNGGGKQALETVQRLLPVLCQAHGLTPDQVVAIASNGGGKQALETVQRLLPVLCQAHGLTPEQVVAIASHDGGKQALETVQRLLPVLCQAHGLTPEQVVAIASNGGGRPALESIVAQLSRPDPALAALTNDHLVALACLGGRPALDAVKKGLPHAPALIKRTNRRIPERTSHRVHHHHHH

T3: sN-TALER IV-2 (GinH106Y-TALE13) (synthetic)
T3 chain: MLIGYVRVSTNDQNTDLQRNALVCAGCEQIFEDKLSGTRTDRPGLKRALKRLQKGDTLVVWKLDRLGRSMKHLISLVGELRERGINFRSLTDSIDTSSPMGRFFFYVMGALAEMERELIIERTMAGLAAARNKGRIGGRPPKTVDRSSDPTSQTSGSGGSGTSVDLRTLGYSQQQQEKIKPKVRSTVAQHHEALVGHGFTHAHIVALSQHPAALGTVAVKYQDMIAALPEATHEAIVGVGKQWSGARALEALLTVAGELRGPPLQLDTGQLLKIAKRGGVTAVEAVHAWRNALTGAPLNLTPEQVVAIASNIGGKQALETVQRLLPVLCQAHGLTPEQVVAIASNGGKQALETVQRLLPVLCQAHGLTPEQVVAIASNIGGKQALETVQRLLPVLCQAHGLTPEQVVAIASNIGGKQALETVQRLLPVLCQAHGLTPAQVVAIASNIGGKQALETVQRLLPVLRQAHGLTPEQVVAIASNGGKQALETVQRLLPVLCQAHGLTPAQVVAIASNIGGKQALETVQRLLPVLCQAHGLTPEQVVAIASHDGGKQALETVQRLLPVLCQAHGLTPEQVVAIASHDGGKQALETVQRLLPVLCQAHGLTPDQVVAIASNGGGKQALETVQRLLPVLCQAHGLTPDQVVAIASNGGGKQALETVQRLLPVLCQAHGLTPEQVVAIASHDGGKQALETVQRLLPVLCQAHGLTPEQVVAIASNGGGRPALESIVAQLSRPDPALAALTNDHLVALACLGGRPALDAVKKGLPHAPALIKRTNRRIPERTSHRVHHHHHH

B1: Gin20TALE+9 (dsDNA)
DNA 1: AGAAGGTATTTATATAGGCATTATCCAAAACCATGGTTTACAGGACACGGTATATAAATACCTTCT
DNA 2: AGAAGGTATTTATATACCGTGTCCTGTAAACCATGGTTTTGGATAATGCCTATATAAATACCTTCT
B2: Gin20TALE+10 (dsDNA)
DNA 1: AGAAGGTATTTATATAGGCACTTATCCAAAACCATGGTTTACAGGACCACGGTATATAAATACCTTCT
DNA 2: AGAAGGTATTTATATACCGTGGTCCTGTAAACCATGGTTTTGGATAAGTGCCTATATAAATACCTTCT
B3: Gin20TALE+1 (dsDNA)
DNA 1: AGAAGGTATTTATATTCCAAAACCATGGTTTACAGATATAAATACCTTCT
DNA 2: AGAAGGTATTTATATCTGTAAACCATGGTTTTGGAATATAAATACCTTCT
B4: Gin20TALE+3 (dsDNA)
DNA 1: AGAAGGTATTTATATAATCCAAAACCATGGTTTACAGGTATATAAATACCTTCT
DNA 2: AGAAGGTATTTATATACCTGTAAACCATGGTTTTGGATTATATAAATACCTTCT
B5: Gin20TALE+4 (dsDNA)
DNA 1: AGAAGGTATTTATATATATCCAAAACCATGGTTTACAGGCTATATAAATACCTTCT
DNA 2: AGAAGGTATTTATATAGCCTGTAAACCATGGTTTTGGATATATATAAATACCTTCT
B6: Gin20TALE+2 (dsDNA)
DNA 1: AGAAGGTATTTATATATCCAAAACCATGGTTTACAGTATATAAATACCTTCT
DNA 2: AGAAGGTATTTATATACTGTAAACCATGGTTTTGGATATATAAATACCTTCT
B7: Gin20TALE+6 (dsDNA)
DNA 1: AGAAGGTATTTATATAGTTATCCAAAACCATGGTTTACAGGACGTATATAAATACCTTCT
DNA 2: AGAAGGTATTTATATACGTCCTGTAAACCATGGTTTTGGATAACTATATAAATACCTTCT
B8: Gin20TALE+7 (dsDNA)
DNA 1: AGAAGGTATTTATATAGGTTATCCAAAACCATGGTTTACAGGACGGTATATAAATACCTTCT
DNA 2: AGAAGGTATTTATATACCGTCCTGTAAACCATGGTTTTGGATAACCTATATAAATACCTTCT
B9: R47 (8bp) (dsDNA)
DNA 1: AGAAGGTATTTATATCTCTGACCATGGTCACACTTATAAATACCTTCT
DNA 2: AGAAGGTATTTATAAGTGTGACCATGGTCAGAGATATAAATACCTTCT

Assays:
[1] = target: T1, pN-TALER IV-1-EE2 (GinL7C7-EE2-TALE13); test: cell_activity; E. coli; settings: tags: 6-His
Description: (§1) To test for recombination, E. coli DH5alpha cells were co-transformed with different combinations of TALER expression construct and TALER reporter construct pairs (Tables 6 and 7). The N-TALER expression and reporter constructs were in an approximate 1:1 mass ratio during the transformation. The co-transformed bacteria were plated on media with chloramphenicol, kanamycin, and X-gal then incubated at 37° C. for 18 to 36 hours. Control samples consisted of transformations using the reporter construct alone. Control transformants were similarly plated. The bacterial transformation protocol was either heat shock or electroporation per standard molecular biology techniques.
Two additional N-TALERs, based on N-TALER IV-1, were constructed wherein the GinH106Y recombinase catalytic domain was replaced with either the GinL7C7-EE2 catalytic domain or the GinL7C7-EE3 permissive recombinase catalytic domain. These N-TALERs were labeled pN-TALER IV-1-EE2 (SEQ ID NO:41) and pN-TALER IV-1-EE3 (SEQ ID NO:45), respectively. pN-TALER IV-1-EE2 was tested in combination with seventeen N-TALER reporter constructs and pN-TALER IV-1-EE3 was tested with three reporter constructs (Table 10).

[2] = target: T2, sN-TALER IV-1 (GinH106Y-TALE13); test: cell_activity; E. coli; settings: tags: 6-His; chain copies: 2 per site, tetramer in synapsis (stated)
Description: as §1

[3] = target: T2, sN-TALER IV-1 (GinH106Y-TALE13); test: cell_activity; E. coli; sequenced; settings: tags: 6-His; chain copies: 2 per site, tetramer in synapsis (stated)
Description: as §1
PCR was used to confirm that the predicted recombination had occurred in colonies which were white or sectored. PCR primers were designed so that a PCR product of approximately 877 bp (depending on the length of the spacers) would be produced from the non-recombined reporter constructs, and a PCR product of approximately 470 bp would be produced from reporter constructs that had undergone N-TALER-mediated recombination. Standard colony PCR was performed on white, blue, and sectored colonies from several plates representing different pairs of N-TALER expression construct and reporter construct co-transformation combinations.
To confirm that the recombination occurred as predicted, several of the PCR products were sequenced. Sequencing results for PCR products generated from white colonies from the sN-TALER IV-1 and Gin18TALE+1; sN-TALER IV-1 and Gin20TALE+0; or sN-TALER IV-1 and Gin20TALE+10 reporter constructs are shown in FIG. 7. No mismatches were detected relative to the predicted recombinase core sequence in any of the PCR products sequenced thereby confirming a base-perfect recombination with N-TALERs (the few single-nucleotide mismatches detected in the sN-TALER IV-1 and Gin20TALE+0 combination were rechecked and consequently dismissed as sequencing error).

[4] = target: T3, sN-TALER IV-2 (GinH106Y-TALE13); test: cell_activity; E. coli; settings: tags: 6-His
Description: as §1

[5] = target: T1, pN-TALER IV-1-EE2 (GinL7C7-EE2-TALE13); test: cell_activity; E. coli; settings: tags: 6-His
Description: To determine how much of the Gin20 sequence is required for recombination when the central sequence is maintained at a permitted length, N-TALER reporters were generated with a 20 bp recombinase central sequence between the TALE binding sites, where either the central 12 bp, or the central 10 bp, or the central 8 bp of the recombinase core sequence were held constant, and the remaining nucleotides were different from the Gin sequence. The N-TALER reporter with 12 bp was designated R45, the N-TALER reporter with 10 bp was designated R46, and the N-TALER reporter with 8 bp was designated R47. A N-TALER reporter with a 10 bp site 1 and a 12 bp site 2 was designated R46B, and a N-TALER reporter with a T and an A flanking the central AT di-nucleotide was designated R48 (see Table 33). The various reporters, including the pSC101 Gin20TALE13+0 were co-transformed with either sN-TALER-IV-1 or pN-TALER-IV-1 and recombination, as determined by colony color, was scored (Table 33). For purposes of comparison, the GinE site that was used in the generation of the GinL7C7-EE2 recombinase domain (Gersbach et al., 2010) was also included.
To confirm that white colonies resulted from recombination, the colonies were analyzed by colony PCR and sequencing of the PCR product. For the reporter that retained 12 bp from the Gin site, 8 of 8 colonies analyzed had the predicted recombination product for both the sN-TALER-IV-1 chimera and the pN-TALER-IV-1chimera (16 colonies total analyzed, 8 each). Likewise, for the reporter that retained 8 bp from the Gin site co-transformed with the pN-TALER-IV-1 chimera, 14 of 14 colonies analyzed had the predicted recombination product.

Binder | activity [1] | activity [2] | activity [3] | activity [4] | activity [5]
B1 | 2 score | 2 score | – | – | –
B2 | 1 score | – | 1.5 score | 1 score | –
B3 | 1 score | 2 score | – | 1 score | –
B4 | 1 score | 3 score | – | 3 score | –
B5 | 1.5 score | – | – | 4 score | –
B6 | 1 score | 3 score | – | – | –
B7 | 2 score | – | – | – | –
B8 | 2.5 score | – | – | – | –
B9 | – | – | – | – | 1.5 score
